How the values were obtained:
Format in all cases: physicochemical
[1] = Anderson Cascade Impactor testing of Albuterol sulfate aerosol from the droplet delivery device (Example B); settings: Albuterol 0.5%, 28.3 lpm, 10 actuations
Description: Droplet size distribution and related functionality was evaluated for exemplary droplet delivery devices of the disclosure, including Anderson Cascade Impactor testing, total drug mass output rates, total drug respirable mass, delivery efficiencies and reproducibility.
The study was designed to evaluate device performance of a single Pneuma™ inhaler. A series of three (3) individual tests were conducted with a new disposable drug cartridge for each test. The testing platform utilizes an eight-stage nonviable Anderson Cascade Impactor (Thermo Fisher Scientific; Waltham, Mass.) equipped with a calibrated AALBORG model GFM47 mass flow meter (AALBORG Instruments and Controls; Orangeburg, N.Y.) for flow rate measurement.
At the conclusion of each test, the mouthpiece was rinsed with mobile phase and collected for HPLC analysis to determine the mass fraction of non-respirable aerosolized drug captured in the mouthpiece via inertial filtering. Following each test, impactor stage samples were extracted and recovered in solvent and analyzed for the active pharmaceutical ingredient (API) using a Dionex Ultimate 3000 nano-HPLC with UV detection (Thermo Scientific, Sunnyvale, Calif.).
The cascade impactor testing procedure involved fitting the mouthpiece into the Impactor USP throat with a mouthpiece connection seal. The vacuum pump supplying sample air flow to the cascade impactor was turned on and the pump control valves adjusted to supply 28.3 L/min total flow through the impactor and inhaler body during aerosol tests.
The device was connected to the impactor USB throat, turned on, and actuated ten (10) times for each test. At the conclusion of the test period, the device, impactor, and dilution air sources were turned off. The i mouthpiece was rinsed in order to extract drug, and all stages of the cascade impactor were rinsed with a quantity of appropriate solvent (HPLC mobile phase). Extracted samples were placed in labeled and sterile HPLC vials, capped, and analyzed for drug content via HPLC with UV detection. The mouthpiece was extracted of residual drug and analyzed for drug content via HPLC to measure mouthpiece drug deposition in relation to the total collected on the impactor stages.
All system flow rates and impactor sample flows were monitored throughout each test period. Following each test, the impactor slides were placed in labeled sterile Petri dishes, and impactor stages were extracted of drug using 2 ml of mobile phase applied with a calibrated micropipette. All extracted samples from the mouthpiece and impactor were placed in labeled sterile amber HPLC sample vials, and stored refrigerated at approximately 2° C. until HPLC analysis.
Impactor collection stages for all tests were rinsed with DI water and ethanol, and air dried prior to each inhaler test trial to avoid contamination. A new inhaler drug cartridge was used for each of the three individual tests.
All drug content analysis was performed using a Dionex Ultimate 3000 nano-HPLC equipped with a Dionex UVD-3000 multi-wavelength UV/VIS Detector using a micro flow cell (75 um×10 mm path length, total analytical volume 44.2 nl). […] Total HPLC run time was 6 minutes per sample with approximately 5 minutes flush between each sample. Sample injection was performed with a 1 μl sample loop in full loop injection mode.
Buffer formulation contains reverseosmosis filtered deionized water with 1.13 gr of sodium 1-hexanesulfonate (Alfa Aesar) in 1200 ml of water, with 2 ml glacial acetic acid (Acros Organics) added. The mobile phase solution was mixed and filtered through a 0.45 um filter membrane. The final mobile phase is a 60:40 dilution of Buffer:MEOH.

[2] = Gel electrophoresis of active agent after droplet generation
From the text: Gel Electrophoresis: To determine the stability of active agent after droplet generation, the generated stream of droplets including the active agent is collected and the molecular weight of the active agent is verified using gel electrophoresis.

[3] = Insulin stability after aerosol generation, size exclusion chromatography (SEC)
From the text: Size Exclusion Chromatography (SEC): Alternately, to determine the stability of active agent after droplet generation, the generated stream of droplets including the active agent may be collected and SEC-HPLIC may be employed to monitor for any changes in large molecule aggregation and protein fragment content. Soluble protein aggregates and protein fragment content may be calculated by comparing respective peak area under the SEC-HPLC curve of dispensed protein solutions with controls (solutions remaining in the device reservoir).
Drug solutions for testing include Enbrel, (ENBREL® single-use prefilled syringes in 25 mg (0.51 mL of a 50 mg/mL solution of etanercept), and insulin, (Humalog, 200 units/ml, 3 ml kwikpens)
To calculate and compare effects of droplet generation through an ejector mechanism of the disclosure, the total area under the curve of the UV signal at 280 nm versus elution time for controls is compared with the aerosolized samples, which is set to 100%.
Aerosol collection and SEC is performed in a similar fashion as for the Enbrel analysis and aerosol collection.
Fifty microliters of the collected aerosol spray is injected onto the SEC column for analysis, while 50 mcl of the Kwikpen insulin solution is injected onto the SEC column for control samples.

[4] = Enbrel stability after aerosol generation, size exclusion chromatography (SEC)
From the text: Size Exclusion Chromatography (SEC): Alternately, to determine the stability of active agent after droplet generation, the generated stream of droplets including the active agent may be collected and […] may be employed to monitor for any changes in large molecule aggregation and protein fragment content. Soluble protein aggregates and protein fragment content may be calculated by comparing respective peak area under the SEC-HPLC curve of dispensed protein solutions with controls (solutions remaining in the device reservoir). Drug solutions for testing include Enbrel, (ENBREL® single-use prefilled syringes in 25 mg (0.51 mL of a 50 mg/mL solution of etanercept), and insulin, (Humalog, 200 units/ml, 3 ml […] is performed with a YarraTM 3 um SEC-2000 LC column 300×7.8 mm, SecurityGuard cartridge kit and SecurityGuard cartridges GFC-2000, 4×3 mm ID. Fifty microliters of Enbrel from the syringe (ENBREL® single-use prefilled syringes in 25 mg/0.51 mL of a 50 mg/mL solution of etanercept) is diluted (4:1) (4 parts, 200 mcl of the mobile phase buffer solution to 1 part, 50 mcl Enbrel from syringe). Fifty microliter of the diluted Enbrel is injected and separation was performed at a flow rate of 1.0 ml/min. The mobile phase buffer system included a PHOS. BUFF. SALINE. […] UV detection is performed at 280 nm. […] An ampule/cartridge is filled with either 0.20 ml of Enbrel® (50 mg/ml) diluted 4:1 (10 mg/ml)(4 parts (200 mcl) of PBS and 0.025% NaN3 and 1 part (50 mcl of Enbrel solution from the syringe). After 20 actuations and aerosolization, about 150 mcl of the aerosolized Enbrel solution is recovered and collected in the polypropylene tube located below the ejector mechanism. The control consists of the diluted Enbrel solution, 50 mcl of which is injected into the SEC column for analysis.

[5] = average of Aerosolized S1 and S2
[6] = control (diluted Enbrel 10 mg/ml, not aerosolized), SEC UV 280 nm

Substance: Albuterol sulfate
- Fine Particles (<0.4 um) ([1]; Anderson Cascade): 31.0 µg
- Fine Particule Fraction (<0.4 um) ([1]; Anderson Cascade): 3.5%
- droplets of an average diameter of less than about 4 μm ([1]; Anderson Cascade): over 70%
- Cum. % < ([1]; FILTER): 0.00%
- Cum. % > ([1]; FILTER): 100.00%

Substance: adalimumab
- change in the electrophoretic mobility (molecular weight) of post-aerosol active agent versus control [2]: negligible change in the electrophoretic mobility

Substance: bevacizumab
- change in the electrophoretic mobility (molecular weight) of post-aerosol active agent versus control [2]: negligible change in the electrophoretic mobility

Substance: Insulin: insulin, Humalog, 200 units/ml, 3 ml kwikpens
- ejected dose that is structurally unchanged ([3]; aerosolized with test device): 97.5%
- Peak 3 area, Avg. [3, 5]: 2.4905
- Peak Area %, Peak 3 ([3]; control (Kwikpen insulin solution 200 U/ml, not aerosolized), SEC): 0%
- ejected dose that forms a fragment ([3]; fragment which elutes at ~25 minutes): 2.5%

Substance: etanercept [Enbrel]
- change in the electrophoretic mobility (molecular weight) of post-aerosol active agent versus control [2]: negligible change in the electrophoretic mobility
- Peak 4 area, Avg. [4, 5]: 0.3545
- Peak 5 area, Avg. [4, 5]: 4.2755
- Peak Area %, Peak 4 [4, 6]: 0%
- Peak Area %, Peak 5 [4, 6]: 0%
- dose that leads to formation of molecular fragments ([4]; fragments with elution times of 13 and 25 minutes): 4.6%

Reference: US11285285B2, “Systems and methods comprising a droplet delivery device and a breathing assist device for therapeutic treatment” (PNEUMA RESPIRATORY, INC., priority 2016, dated 2022)
